Results: US5616484

Target: T1, ApaLI restriction endonuclease (apaLIR product, 375 aa) (Acetobacter pasteurianus) (UniProt O52703)
T1 sequence: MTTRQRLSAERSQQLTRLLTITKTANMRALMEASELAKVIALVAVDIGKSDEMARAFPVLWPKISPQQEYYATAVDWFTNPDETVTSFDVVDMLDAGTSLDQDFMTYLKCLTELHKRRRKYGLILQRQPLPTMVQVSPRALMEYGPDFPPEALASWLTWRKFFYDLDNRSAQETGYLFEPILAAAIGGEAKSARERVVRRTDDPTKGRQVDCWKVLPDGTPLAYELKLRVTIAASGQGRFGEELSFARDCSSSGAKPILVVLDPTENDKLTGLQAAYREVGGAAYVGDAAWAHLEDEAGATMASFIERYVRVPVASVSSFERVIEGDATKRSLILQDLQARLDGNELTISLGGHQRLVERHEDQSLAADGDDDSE
Test: cleavage_in_vitro
Details: diluted cell extract, 1 ug lambda DNA, 1 h, 37 C

Substance: lambda DNA
- activity (units/g wet cells): 1e+06
